According to US20160287696A1, “PAN POLLEN IMMUNOGENS AND METHODS AND USES FOR IMMUNE RESPONSE MODULATION” (LA JOLLA INSTITUTE FOR ALLERGY AND IMMUNOLOGY, priority 2013, published 2016):

Tested on: cultured PBMCs of the allergic donors
Experiment: ELISPOT of IL-5 or IFNg production by cultured PBMCs of TG allergic donors in response to peptide
Assay type: cell-based, human
Conditions: for NTGA's containing at least one T cell epitope, Th+ (Col 2): NTGA number given = criterion met, TG allergic donors n=20; for No of PG+ & th+ peptides per NTGA / No of PP & Th+ peptides per NTGA: Table 6; for No of PG+ & th+ peptides per NTGA: PG+ peptides recognized by T cells of grass allergic donors (n=20); for No of PP & Th+ peptides per NTGA: PP peptides recognized by T cells of grass allergic donors (n=20); for # Th+: Table 7, peptides per NTGA recognized by T cells of grass allergic donors (n=20)
From the text: Table 1 indicates for each of the 397 PG+ peptides in which non-grass pollen species a matching peptide with either less than 3, less than 2 or zero mismatches are found. The number of TG grass allergic donors (n=20) with an in vitro T cell response to the TG peptide sequence is also shown.
A set of 93 proteins from Timothy grass (TG) pollen and the assembly of 822 peptides (15 mers) predicted to promiscuously bind HLA class II molecules shown in Table 9 and the immune reactivity in allergic donors have been reported in PCT application WO 2013/119863. […] Immune reactivity was determined by the production of IL-5 or IFNg from cultured PBMCs of the allergic donors in response to stimulation with a peptide and IL-5 and IFNg were measured by ELISPOT as described in Oseroff C et al, 2010.
In short, T cell immune reactivity was determined using PBMCs isolated from study participants and stored in liquid nitrogen until further use. For experimental testing, PBMCs were thawed and expanded in vitro with TG pollen extract (50 μg/mL) or the peptide pool ([…]). The TG extract and peptide pools had each been previously titrated to determine optimal stimulation concentrations.
Cytokine production by cultured PBMCs in response to antigen stimulation was measured by ELISPOT. Cells (1×10^5 cells/well) were plated and incubated with peptide (10 μg/mL), the peptide pool (5 μg/mL), or the TG extract (50 μg/mL). Phytohaemagglutinin (10 μg/mL) and medium alone were used as positive and negative controls, respectively. Samples were considered to produce a cytokine if 100 spot-forming cells (SFCs)/10^6 PBMCs were detected, with P .05 and a stimulation index of 2 or more. Criteria for individual peptides were the same except that a minimum of 20 SFCs were required for a sample to be counted as positive.
Table 3 lists the 397 PG+ peptides and indicates for each non-grass pollen species whether a matching peptide with either less than 3, less than 2 or zero mismatches could be detected. The immune reactivity of the TG peptide was assessed as the number of TG grass allergic donors (n=20) having in vitro T cell response against the TG peptide.

| Molecule | NTGA's containing at least one T cell epitope, Th+ (Col 2) | No of PG+ & th+ peptides per NTGA | No of PP & Th+ peptides per NTGA | # Th+ |
| --- | --- | --- | --- | --- |
| NTGA 9: Phl p wild type sequence, Table 2 (protein, Phleum Pratense) MAQLQETYACSPATERGRGILLGGDAKTDTIVYCAGRTVFFRRLDAPLDAWTYTEHAYPTTVARISPNGEWVASADVSGCVRVWGRNGDRALKAEFRPISGRVDDLRWSPDGLRIVVSGDGKGKSLVRAFMWDSGSTVGDFDGHSKRVLSCDFKPTRPFRIVTCGEDFLANYYEGPPFKFKHSIRDHSNFVNCIRYSPDGSKFITVSSDKRGLIYDGKTGDKIGELSSEDSHTGSIYAVSWSADSKQVLTVSADKTAKVWDIMEDASGKVNRTLVCTGIGGVDDMLVGCLWQNDHLVTVSLGGTFNVFSASNPDKEPVSFAGHLKTVSSLTYFPQSNPRTMLSTSYDGVIIRWIQGVGYGGRLIRKNNTQIKCFVAAEEELITSGYDNMVFRIPLNGDQCGDAESVDVGGQPNALNIAVQQPEFALITTDSAIVLLHKSTVTSTTKVSYTITSSAVSPDGTEAIVGAQDGKLRIYSISGDTLTEEAVLERHRGAITSIHYSPDVSMFASADANREAVAWDRATREIKLKNMLFHTARINCLAWSPDSRLVATGSIDTCAIIYDVDKPASSRITIKGAHLGGVHGLTFADNDTLVTAGEDACVRVWKLV | 9 | 3 | 1 | 0 |
| NTGA 26: Phl p wild type sequence, Table 2 (protein, Phleum Pratense) GVFTDKDKAAAHMKGGAKKVVISAPSKDAPMFVVGVNEDKYTSDVNIVSNASCTTNCLAPLAKIINDNFGIVEGLMTTVHSITATQKTVDGPSSKDWRGGRAASFNIIPSSTGAAKAVGKVLPELNGKLTGMSFRVPTVDVSVVDLTVRIEKAASYEDIKKAIKAASEGNLKGIMGYVEEDLVSTDFIGDSRSSIFDAKAGIALNDNFVKLVSWYDNEWGY | 26 | 1 | 1 | 0 |
| NTGA 32: Phl p wild type sequence, Table 2 (protein, Phleum Pratense) MAPIKIGINGFGRIGRLVARVALQCPDVELVAVNDPFITTDYMTYMFKYDTVHGQWKHHDVKVKDAKTLLFGEKEVAVFGCRNPEEIPWGAAGADYVVESTGVFTDKDKAAAHIKGGAKKVIISAPSKDAPMFVCGVNEKEYTSDITIVSNASCTTNCLAPLAKVINDRFGIVEGLMTTVHAMTATQKTVDGPSSKDWRGGRAASFNIIPSSTGAAKAVGKVLPVLNGKLTGMAFRVPTVDVSVVDLTVRLEKAATYEQIKAAIKEESEGNLKGILGYVDEDLVSTDFQGDSRSSIFDAKAGIALNDNFVKLVSWYDNEWGYSTRVVDLIRHIHATK | 32 | 4 | 4 | 0 |
| NTGA 29: Phl p wild type sequence, Table 2 (protein, Phleum Pratense) MASEKHFKYVILGGGVAAGYAAREFAKQGVQPGELAIISKESVAPYERPALSKGYLFPQNAARLPGFHTCVGSGGEKLLPEWYTEKGIELILSTEIVKADLASKTLTSAAGATFTYETLLIATGSSTIKLTDFGVQGAEANNILYLRDINDADKLVAAMQAKKDGKAVVVGGGYIGLELSAALKLNNFDVTMVYPEPWCMPRLFTAGIAHFYEGYYASKGINIVKGTVASGFDADANGDVAVVKLKDGRVLDANIVIVGVGGRPLTGLFKGQVDEEKGGLKTDTFFETSVAGVYAIGDVASFPMKLYNEPRRVEHVDHARKSAEQAVKAIKAKESGETVAEYDYLPYFYSRSFDIAWQFYGDNVGESVLFGDNDPAAAKAKFGTYWVKDGKVVGVFLEGGSADENQAIAKVARAQPLVAANLGELGKEGLDFAAKI | 29 | 1 | 1 | 0 |
| NTGA 11: Phl p wild type sequence, Table 2 (protein, Phleum Pratense) MATSWTLPDHPTLPKGKTVAVIVLDGWGEASADQYNCIHRAETPVMDSLKNGAPEKWTLVKAHGTAVGLPSDDDMGNSEVGHNALGAGRIFAQGAKLVDAALASGKIWEAEGFNYIKESFAEGTLHLIGLLSDGGVHSRLDQVQLLVKGASERGAKRIRLHILTDGRDVLDGSSVGFVETLENDLAQLREKGVDAQVASGGGRMYVTMDRYENDWDVVKRGWDAQVLGEAPYKFKSALEAVKTLRAEPKANDQYLPAFVIVDESGKSVGPIVDGDAVVTFNFRADRMVMLAKALEFADFDKFDRVRVPKIKYAGMLQYDGELKLPNKFLVSPPLIERTSGEYLVKNGVRTFACSETVKFGHVTFFWNGNRSGYFDETKEEYIEIPSDSGITFNEQPKMKALEIAEKTRDAILSGKFDQVRINLPNGDMVGHTGDIEATVVACKAADEAVKIVLDAVEQVGGIYLVTADHGNAEDMVKRNKSGQPALDKSGSIQILTSHTLQPVPVAIGGPGLHPGVKFRSDINTPGLANVAATVMNLHGFQAPDDYETTLIEVAD | 11 | 5 | 1 | 0 |
| NTGA 4: Phl p wild type sequence, Table 2 (protein, Phleum Pratense) YIKLMKTIFDFESIKKLLASPKFSFCFDGLHGVAGAYAKRMFVDELGASESSLLNCVPKEDFGGGHPDPNLTYAKELVERMGLGKSSSNVEPPEFGAAADGDADRNMVLGKRFFVTPSDSVAIIAANAVQSIPYFASGLKGVARSMPTSAALDVVAKNLNLKFFEVPTGWKFFGNLMDAGMCSVCGEESFGTGSDHIREKDGIWAVLAWLSIIAYKNKDNLGGDKLVSVEDIVLQHWATYGRHYYTRYDYENVDAEAAKELMANLVKMQSALSDVNKLIKEIQPDVAEVVSADEFEYKDPVDGSVSKHQGIRYLFGDGSRLVFRLSGTGSVGATIRIYIEQYEKDSSKTGRESSDALSPLVDVALKLSKIKEYTGRSAPTVIT | 4 | 4 | 3 | 0 |
| NTGA 30: Phl p wild type sequence, Table 2 (protein, Phleum Pratense) MAGGGVEDVYGEDRATEEQFVTPWSFSVASGHSLLRDPRHNKGLAFSEAERDAHYLRGLLPPAIVSQEHQEKKIMHNLRQYTVPLQRYIAMMDLQERNERLFYKLLIDNVEELLPVVYTPVVGEACQKYGSIYRRPQGLYISLKDKGKVLEVLKNWPERSIQVIVVTDGERILGLGDLGCQGMGIPVGKLSLYTALGGVRPSACLPITIDVGTNNQTLLDDEYYIGLKQRRATGEEYHELLQEFMNAVKQNYGEKVLVQFEDFANHNAFDLLAKYSKSHLVFNDDIQGTASVVLAGLLAALKVIGGGLADQTYLFLGAGEAGTGIAELIALEMSKHTDLPLDDCRKKIWLVDSKGLLVESRKESLQHFKKPFAHEHEPLTTLLEAVQSLKPTVLIGTSGVGKTFTQEVVEAMASFNEKPVIFSLSNPTSHSECTAEEAYTWTKGTAVFASGSPFDPVEYEGKTYVPGQSNNAYVFPGFGLGVVISGAIRVHDDMLLAASEALAEQVSQENFDKGLIFPPFTNIRKISANIAAKVAAKAYDLGLASRLPRPDDLVKYAESCMYTPLYRSYR | 30 | 1 | 1 | 0 |
| NTGA 10: Phl p wild type sequence, Table 2 (protein, Phleum Pratense) MVFSVTKKDTKPFDGQKPGTSGLRKKVTVFQQPHYLANFVQSTFNALPADQVKGATIVVSGDGRYFSKDAVQIITKMAAANGVRRVWVGQDSLLSTPAVSAIIRERIAADGSKATGAFILTASHNPGGPTEDFGIKYNMGNGGPAPESVTDKIFSNTTTITEYLIAEDLPDVDISALGVTTFTGPEGPFDVDVFDSATDYIKLMKTIFDFESIKKLLASPKFSFCFDGLHGVAGAYAKRMFVDELGASESSLLNCVPKEDFGGGHPDPNLTYAKELVERMGLGKSSSNVEPPEFGAAADGDADRNMVLGKRFFVTPSDSVAIIAANAVQSIPYFASGLKGVARSMPTSAALDVVAKNLNLKFFEVPTGWKFFGNLMDAGMCSVCGEESFGTGSDHIREKDGIWAVLAWLSIIAYKNKDNLGGDKLVSVEDIVLQHWATYGRHYYTRYDYENVDAEAAKELMANLVKMQSALSDVNKLIKEIQPDVAEVVSADEFEYKDPVDGSVSKHQGIRYLFGDGSRLVFRLSGTGSVGATIRIYIEQYEKDSSKTGRESSDALSPLVDVALKLSKIKEYTGRSAPTVIT | 10 | 3 | 0 | 0 |
